Reference: patent US20250352667A1
One block for each binder: values may come before it.

Tests used:
[1] = molecular target: KEAP1 (wild-type full-length), His-tagged (human) (UniProt Q14145); experiment: AlphaScreen; FLAG-NRF2 wt isoform 1 76.8 nM, His-KEAP1 150 nM; Rep 2; positive control for Q75R
[2] = molecular target: KEAP1 (wild-type full-length), His-tagged (human) (UniProt Q14145); experiment: AlphaScreen; 614.4 nM FLAG-NRF2, 150 nM His-KEAP1; signal against NRF2 only; control for I28V
[3] = molecular target: KEAP1 (wild-type full-length), His-tagged (human) (UniProt Q14145); experiment: AlphaScreen; FLAG-NRF2 wt isoform 1 2.4 nM, His-KEAP1 150 nM; Rep 1; positive control for Q75R
[4] = molecular target: KEAP1 (wild-type full-length), His-tagged (human) (UniProt Q14145); experiment: AlphaScreen; 2.4 nM FLAG-NRF2, 150 nM His-KEAP1; Rep 1; control for I28V
[5] = molecular target: KEAP1 (wild-type full-length), His-tagged (human) (UniProt Q14145); experiment: AlphaScreen; 2.4 nM FLAG-NRF2, 150 nM His-KEAP1; Rep 3; control for I86V
[6] = molecular target: KEAP1 (wild-type full-length), His-tagged (human) (UniProt Q14145); experiment: AlphaScreen; 1228.8 nM FLAG-NRF2, 150 nM His-KEAP1; Rep 2; control for I86V
[7] = molecular target: KEAP1 (wild-type full-length), His-tagged (human) (UniProt Q14145); experiment: AlphaScreen; 2.4 nM FLAG-NRF2, 150 nM His-KEAP1; signal against NRF2 only; control for I86V
[8] = molecular target: KEAP1 (wild-type full-length), His-tagged (human) (UniProt Q14145); experiment: AlphaScreen; 1228.8 nM FLAG-NRF2, 150 nM His-KEAP1; signal against NRF2 only; control for I86V
[9] = molecular target: KEAP1 (wild-type full-length), His-tagged (human) (UniProt Q14145); experiment: AlphaScreen; 1228.8 nM FLAG-NRF2, 150 nM His-KEAP1; Rep 2; control for I28V
[10] = molecular target: KEAP1 (wild-type full-length), His-tagged (human) (UniProt Q14145); experiment: AlphaScreen; FLAG-NRF2 wt isoform 1 19.2 nM, His-KEAP1 150 nM; Rep 2; positive control for Q75R
[11] = molecular target: KEAP1 (wild-type full-length), His-tagged (human) (UniProt Q14145); experiment: AlphaScreen; FLAG-NRF2 wt isoform 1 9.6 nM, His-KEAP1 150 nM; Repeat 1; positive control for Q75R
[12] = molecular target: KEAP1 (wild-type full-length), His-tagged (human) (UniProt Q14145); experiment: AlphaScreen; 38.4 nM FLAG-NRF2, 150 nM His-KEAP1; Rep 1; control for I86V
[13] = molecular target: KEAP1 (wild-type full-length), His-tagged (human) (UniProt Q14145); experiment: AlphaScreen; 38.4 nM FLAG-NRF2, 150 nM His-KEAP1; Rep 1; control for I28V
[14] = molecular target: KEAP1 (wild-type full-length), His-tagged (human) (UniProt Q14145); experiment: AlphaScreen; 19.2 nM FLAG-NRF2, 150 nM His-KEAP1 (same value as in Table 26)
[15] = molecular target: KEAP1 (wild-type full-length), His-tagged (human) (UniProt Q14145); experiment: AlphaScreen; 2.4 nM FLAG-NRF2, 150 nM His-KEAP1; Rep 2; control for I28V
[16] = molecular target: KEAP1 (wild-type full-length), His-tagged (human) (UniProt Q14145); experiment: AlphaScreen; NRF2 I86V 614.4 nM, KEAP1 150 nM; signal against NRF2-only control
[17] = molecular target: KEAP1 (wild-type full-length), His-tagged (human) (UniProt Q14145); experiment: AlphaScreen; NRF2 I86V 4.8 nM, KEAP1 150 nM; signal against NRF2-only control
[18] = molecular target: KEAP1 (wild-type full-length), His-tagged (human) (UniProt Q14145); experiment: AlphaScreen; FLAG-NRF2 I86V 4.8 nM, His-KEAP1 150 nM; Rep 2
[19] = molecular target: KEAP1 (wild-type full-length), His-tagged (human) (UniProt Q14145); experiment: AlphaScreen; FLAG-NRF2 I86V 153.6 nM, His-KEAP1 150 nM; Rep 2
[20] = molecular target: KEAP1 (wild-type full-length), His-tagged (human) (UniProt Q14145); experiment: AlphaScreen; 9.6 nM FLAG-NRF2, 150 nM His-KEAP1; Rep 2
[21] = molecular target: KEAP1 (wild-type full-length), His-tagged (human) (UniProt Q14145); experiment: AlphaScreen; FLAG-NRF2 Q75R 4.8 nM, His-KEAP1 150 nM; Rep 1
[22] = molecular target: KEAP1 (wild-type full-length), His-tagged (human) (UniProt Q14145); experiment: AlphaScreen; FLAG-NRF2 Q75R 38.4 nM, His-KEAP1 150 nM; Repeat 2
[23] = molecular target: KEAP1 (wild-type full-length), His-tagged (human) (UniProt Q14145); experiment: AlphaScreen; FLAG-NRF2 Q75R 2.4 nM, His-KEAP1 150 nM; Rep 1
[24] = molecular target: KEAP1 (wild-type full-length), His-tagged (human) (UniProt Q14145); experiment: AlphaScreen; NRF2 Q75R 38.4 nM, KEAP1 150 nM; relative to wild-type NRF2 isoform 1 (100 %)
[25] = molecular target: KEAP1 (wild-type full-length), His-tagged (human) (UniProt Q14145); experiment: AlphaScreen; FLAG-NRF2 Q75R 307.2 nM, His-KEAP1 150 nM; Rep 1
[26] = molecular target: KEAP1 (wild-type full-length), His-tagged (human) (UniProt Q14145); experiment: AlphaScreen; NRF2 Q75R 1228.8 nM, KEAP1 150 nM; signal against NRF2-only control
[27] = molecular target: KEAP1 (wild-type full-length), His-tagged (human) (UniProt Q14145); experiment: AlphaScreen; NRF2 Q75R 9.6 nM, KEAP1 150 nM; signal against NRF2-only control

Chain of KEAP1 (wild-type full-length), His-tagged (human) (Q14145 2-624 limits assumed): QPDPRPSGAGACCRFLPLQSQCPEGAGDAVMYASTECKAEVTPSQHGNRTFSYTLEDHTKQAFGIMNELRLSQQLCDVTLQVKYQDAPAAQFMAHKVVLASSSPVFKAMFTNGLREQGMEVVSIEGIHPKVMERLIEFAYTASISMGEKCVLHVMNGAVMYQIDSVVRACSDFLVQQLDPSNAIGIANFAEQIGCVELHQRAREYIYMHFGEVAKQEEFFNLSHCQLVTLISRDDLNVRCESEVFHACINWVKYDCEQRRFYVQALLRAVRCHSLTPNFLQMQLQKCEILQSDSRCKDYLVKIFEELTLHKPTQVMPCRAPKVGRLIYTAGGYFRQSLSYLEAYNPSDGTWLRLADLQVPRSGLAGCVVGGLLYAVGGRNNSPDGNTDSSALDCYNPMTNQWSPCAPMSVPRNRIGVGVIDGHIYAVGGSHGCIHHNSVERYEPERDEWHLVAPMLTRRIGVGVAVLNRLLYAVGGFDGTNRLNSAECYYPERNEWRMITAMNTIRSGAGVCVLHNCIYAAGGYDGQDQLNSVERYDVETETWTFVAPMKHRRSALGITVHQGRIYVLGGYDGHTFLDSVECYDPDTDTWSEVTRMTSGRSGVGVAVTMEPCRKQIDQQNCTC

- A-counts (NRF2 plus KEAP1) [1]: 1420 A-counts
- S/N [2]: 1
- A-counts (NRF2 plus KEAP1) [3]: 419 A-counts
- A-counts [4]: 622 A-counts
- A-counts [5]: 1100 A-counts
- A-counts [6]: 2770 A-counts
- S/N [7]: 1.7
- S/N [8]: 1
- A-counts [9]: 1520 A-counts
- A-counts (NRF2 plus KEAP1) [10]: 1480 A-counts
- A-counts (NRF2 plus KEAP1) [11]: 1024 A-counts
- A-counts [12]: 3100 A-counts
- A-counts [13]: 2000 A-counts
- S/N [14]: 4.2
- A-counts [15]: 628 A-counts
B1: NRF2 isoform 1 (wild-type full-length), FLAG-tagged (protein)
chain: MMDLELPPPGLPSQQDMDLIDILWRQDIDLGVSREVFDFSQRRKEYELEKQKKLEKERQEQLQKEQEKAFFAQLQLDEETGEFLPIQPAQHIQSETSGSANYSQVAHIPKSDALYFDDCMQLLAQTFPFVDDNEVSSATFQSLVPDIPGHIESPVFIATNQAQSPETSVAQVAPVDLDGMQQDIEQVWEELLSIPELQCLNIENDKLVETTMVPSPEAKLTEVDNYHFYSSIPSMEKEVGNCSPHFLNAFEDSFSSILSTEDPNQLTVNSLNSDATVNTDFGDEFYSAFIAEPSISNSMPSPATLSHSLSELLNGPIDVSDLSLCKAFNQNHPESTAEFNDSDSGISLNTSPSVASPEHSVESSSYGDTLLGLSDSEVEELDSAPGSVKQNGPKTPVHSSGDMVQPLSPSQGQSTHVHDAQCENTPEKELPVSPGHRKTPFTKDKHSSRLEAHLTRDELRAKALHIPFPVEKIINLPVVDFNEMMSKEQFNEAQLALIRDIRRRGKNKVAAQNCRKRKLENIVELEQDLDHLKDEKEKLLKEKGENDKSLHLLKKQLSTLYLEVFSMLRDEDGKPYSPSEYSLQQTRDGNVFLVPKSKKPDVKKN

- S/N [16]: 1.1
- S/N [17]: 2.9
- A-counts (NRF2 plus KEAP1) [18]: 2110 A-counts
- A-counts (NRF2 plus KEAP1) [19]: 2580 A-counts
B2: NRF2 isoform 1 (I86V full-length), FLAG-tagged (protein)
chain: MMDLELPPPGLPSQQDMDLIDILWRQDIDLGVSREVFDFSQRRKEYELEKQKKLEKERQEQLQKEQEKAFFAQLQLDEETGEFLPVQPAQHIQSETSGSANYSQVAHIPKSDALYFDDCMQLLAQTFPFVDDNEVSSATFQSLVPDIPGHIESPVFIATNQAQSPETSVAQVAPVDLDGMQQDIEQVWEELLSIPELQCLNIENDKLVETTMVPSPEAKLTEVDNYHFYSSIPSMEKEVGNCSPHFLNAFEDSFSSILSTEDPNQLTVNSLNSDATVNTDFGDEFYSAFIAEPSISNSMPSPATLSHSLSELLNGPIDVSDLSLCKAFNQNHPESTAEFNDSDSGISLNTSPSVASPEHSVESSSYGDTLLGLSDSEVEELDSAPGSVKQNGPKTPVHSSGDMVQPLSPSQGQSTHVHDAQCENTPEKELPVSPGHRKTPFTKDKHSSRLEAHLTRDELRAKALHIPFPVEKIINLPVVDFNEMMSKEQFNEAQLALIRDIRRRGKNKVAAQNCRKRKLENIVELEQDLDHLKDEKEKLLKEKGENDKSLHLLKKQLSTLYLEVFSMLRDEDGKPYSPSEYSLQQTRDGNVFLVPKSKKPDVKKN

- A-counts [20]: 1560 A-counts
B3: NRF2 isoform 1 (I28V full-length), FLAG-tagged (protein)
chain: MMDLELPPPGLPSQQDMDLIDILWRQDVDLGVSREVFDFSQRRKEYELEKQKKLEKERQEQLQKEQEKAFFAQLQLDEETGEFLPIQPAQHIQSETSGSANYSQVAHIPKSDALYFDDCMQLLAQTFPFVDDNEVSSATFQSLVPDIPGHIESPVFIATNQAQSPETSVAQVAPVDLDGMQQDIEQVWEELLSIPELQCLNIENDKLVETTMVPSPEAKLTEVDNYHFYSSIPSMEKEVGNCSPHFLNAFEDSFSSILSTEDPNQLTVNSLNSDATVNTDFGDEFYSAFIAEPSISNSMPSPATLSHSLSELLNGPIDVSDLSLCKAFNQNHPESTAEFNDSDSGISLNTSPSVASPEHSVESSSYGDTLLGLSDSEVEELDSAPGSVKQNGPKTPVHSSGDMVQPLSPSQGQSTHVHDAQCENTPEKELPVSPGHRKTPFTKDKHSSRLEAHLTRDELRAKALHIPFPVEKIINLPVVDFNEMMSKEQFNEAQLALIRDIRRRGKNKVAAQNCRKRKLENIVELEQDLDHLKDEKEKLLKEKGENDKSLHLLKKQLSTLYLEVFSMLRDEDGKPYSPSEYSLQQTRDGNVFLVPKSKKPDVKKN

- A-counts (NRF2 plus KEAP1) [21]: 826 A-counts
- A-counts (NRF2 plus KEAP1) [22]: 1280 A-counts
- A-counts (NRF2 plus KEAP1) [23]: 588 A-counts
- Binding Percentage [24]: 73.4%
- A-counts (NRF2 plus KEAP1) [25]: 995 A-counts
- S/N [26]: 0.9
- S/N [27]: 2.4
B4: NRF2 isoform 1 (Q75R full-length), FLAG-tagged (protein)
chain: MMDLELPPPGLPSQQDMDLIDILWRQDIDLGVSREVFDFSQRRKEYELEKQKKLEKERQEQLQKEQEKAFFAQLRLDEETGEFLPIQPAQHIQSETSGSANYSQVAHIPKSDALYFDDCMQLLAQTFPFVDDNEVSSATFQSLVPDIPGHIESPVFIATNQAQSPETSVAQVAPVDLDGMQQDIEQVWEELLSIPELQCLNIENDKLVETTMVPSPEAKLTEVDNYHFYSSIPSMEKEVGNCSPHFLNAFEDSFSSILSTEDPNQLTVNSLNSDATVNTDFGDEFYSAFIAEPSISNSMPSPATLSHSLSELLNGPIDVSDLSLCKAFNQNHPESTAEFNDSDSGISLNTSPSVASPEHSVESSSYGDTLLGLSDSEVEELDSAPGSVKQNGPKTPVHSSGDMVQPLSPSQGQSTHVHDAQCENTPEKELPVSPGHRKTPFTKDKHSSRLEAHLTRDELRAKALHIPFPVEKIINLPVVDFNEMMSKEQFNEAQLALIRDIRRRGKNKVAAQNCRKRKLENIVELEQDLDHLKDEKEKLLKEKGENDKSLHLLKKQLSTLYLEVFSMLRDEDGKPYSPSEYSLQQTRDGNVFLVPKSKKPDVKKN
